Source: patent publication US20110038861 (published 2011)
Where two headings read alike, the source gives them in different places.

B1: 2324 (10B10.2E6) (antibody, V domains shown)
VH: VTLKESGPGILKPSQTLSLTCSFSGFSLSTSGMGVGWIRQSSGKGLEWLAHIWWDDDKYYNPSLKSQLTISKDTSRNQVFLKITSVDTADTATYYCARRGVRHRDYFDYWGQGTTLTVSS
VL: DVLMTQTPLSLPVSLGDQASISCRSSQSIVHSNGNTYLEWYLQKPGQSPKLLIYKVSNRFSGVPDRFSGSGSGTDFTLKISRVEAEDLGVYYCFQGSRVPLTFGAGTKLELKR
B2: Humanized 2286 Fab (O8; VH3) (antibody, V domains shown)
VH: EVQLVESGGGLVQPGGSLRLSCAASYWMNWVRQAPGKGLEWVSEINPDSSTINYTPSLKDRFTISRDNAKNTLYLQMNSLRAEDTAVYYCARQMGYWGQGTTLTVSS
VL: DIQMTQSPSSLSASVGDRVTITCSASQGISNYLNWYQQKPGKAPKLLIYYTSSLHSGVPSRFSGSGSGTDFTFTISSLQPEDIATYYCQQYRKLPYTFGGGTKVEIKR
B3: Mouse 2286 Fab (antibody, V domains shown)
VH: EVKLLESGGGLVQPGGSLKLSCAASGFDFSRYWMNWVRQAPGKGLEWIGEINPDSSTINYTPSLKDKFIISRDNAKNTLYLQMSKVRSEDTALYYCARQMGYWGQGTTLTVSS
VL: DIQMTQTTSSLSASLGDRVTISCSASQGISNYLNWFQQKPDGTVKLLIYYTSSLHSGVPSRFSGSGSGTDYSLTISNLEPEDIATYYCQQYRKLPYTFGGGTKLEIKR
B4: 2286 (8A1.2A1) (antibody, V domains shown)
VH: B3 VH
VL: B3 VL
B5: Humanized 2286 Fab (O8; VH4) (antibody, V domains shown)
VH: QVQLQESGPGLVKPSETLSLTCTVSYWMNWIRQPPGKGLEWIGEINPDSSTINYTPSLKDRVTISKDTSKNQFSLKLSSVTAADTAVYYCARQMGYWGQGTLVTVSS
VL: B2 VL

How the values were obtained:
beta-APP = beta-APP (human); assay: ELISA
Sequence of beta-APP (human) (chain, as listed by the source): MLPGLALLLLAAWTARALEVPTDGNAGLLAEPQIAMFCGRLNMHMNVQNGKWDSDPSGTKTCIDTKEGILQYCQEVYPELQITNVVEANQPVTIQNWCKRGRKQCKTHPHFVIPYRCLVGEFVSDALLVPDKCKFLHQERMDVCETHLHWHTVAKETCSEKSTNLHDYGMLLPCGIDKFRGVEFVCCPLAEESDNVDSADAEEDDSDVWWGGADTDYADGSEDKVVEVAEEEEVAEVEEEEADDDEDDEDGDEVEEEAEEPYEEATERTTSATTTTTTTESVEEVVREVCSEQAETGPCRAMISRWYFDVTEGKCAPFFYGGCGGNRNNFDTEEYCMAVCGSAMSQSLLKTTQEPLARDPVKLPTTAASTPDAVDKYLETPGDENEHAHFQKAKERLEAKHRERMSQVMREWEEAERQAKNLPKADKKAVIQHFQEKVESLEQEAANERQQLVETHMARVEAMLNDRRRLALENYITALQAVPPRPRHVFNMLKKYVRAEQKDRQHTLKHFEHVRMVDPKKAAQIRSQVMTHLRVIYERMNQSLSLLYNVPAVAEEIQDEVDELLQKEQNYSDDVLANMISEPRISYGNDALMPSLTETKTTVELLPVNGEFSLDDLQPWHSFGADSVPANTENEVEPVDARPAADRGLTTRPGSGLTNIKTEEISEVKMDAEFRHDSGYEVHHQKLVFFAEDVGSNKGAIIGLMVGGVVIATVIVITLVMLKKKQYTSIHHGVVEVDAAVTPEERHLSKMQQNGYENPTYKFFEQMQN

Abeta 1-40 [1] = biological target: Abeta 1-40 (human)
Sequence of Abeta 1-40 (human) (P05067 672-711): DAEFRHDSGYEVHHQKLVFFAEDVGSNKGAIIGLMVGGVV

Abeta 1-40 [2] = biological target: Abeta 1-40 (human); assay: SPR
Abeta 1-40 [3] = biological target: Abeta 1-40 (human); remark: listed apart in the source

Row | Binder | binding result (beta-APP) | Kd (Abeta 1-40 [1]) [nM] | Kd (Abeta 1-40 [2]) [nM] | Kd (Abeta 1-40 [3]) [nM]
1 | B1 | no binding | 0.9 | – | –
2 | B2 | – | – | 500 | –
3 | B3 | – | – | 76 | –
4 | B4 | no binding | – | – | 2.7
5 | B5 | – | – | 500 | –
